# Data published in article PMC9820991, “Elucidating the Interaction between Pyridoxine 5′-Phosphate Oxidase and Dopa Decarboxylase: Activation of B6-Dependent Enzyme” (International Journal of Molecular Sciences, 2022).
# T1: human dopa decarboxylase, holo form (human, UniProt P20711 1-480, PLP as internal aldimine on Lys303)
# T1 construct: also called holoDDC; DDC; source: E. coli BL21(DE3)pLysS, purified (Histrap Ni2+ column, dialysis against PLP); not shown: His tag (from the Histrap column)
# T1 sequence (looked up): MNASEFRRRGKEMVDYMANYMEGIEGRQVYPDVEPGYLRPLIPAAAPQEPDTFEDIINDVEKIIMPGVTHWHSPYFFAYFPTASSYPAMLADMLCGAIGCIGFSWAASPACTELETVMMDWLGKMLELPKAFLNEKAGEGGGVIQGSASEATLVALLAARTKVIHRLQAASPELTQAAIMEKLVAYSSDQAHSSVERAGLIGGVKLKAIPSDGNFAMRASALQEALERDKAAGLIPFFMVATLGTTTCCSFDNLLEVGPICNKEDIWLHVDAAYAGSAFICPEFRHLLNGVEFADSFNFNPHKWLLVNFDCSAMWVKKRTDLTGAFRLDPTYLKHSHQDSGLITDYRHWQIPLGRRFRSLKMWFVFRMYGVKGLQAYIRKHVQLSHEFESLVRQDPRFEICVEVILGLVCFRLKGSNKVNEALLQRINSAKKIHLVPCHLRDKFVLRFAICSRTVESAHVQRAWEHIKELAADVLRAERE
# T2: human dopa decarboxylase, apo form (human, UniProt P20711 1-480)
# T2 construct: same chain as m2 without PLP; Made from holoDDC by removal of the cofactor; also called apoDDC; source: E. coli BL21(DE3)pLysS, purified (Histrap Ni2+ column); PLP removed with 5 mM hydroxylamine and dialysis; not shown: His tag (from the Histrap column)
# T2 sequence (looked up): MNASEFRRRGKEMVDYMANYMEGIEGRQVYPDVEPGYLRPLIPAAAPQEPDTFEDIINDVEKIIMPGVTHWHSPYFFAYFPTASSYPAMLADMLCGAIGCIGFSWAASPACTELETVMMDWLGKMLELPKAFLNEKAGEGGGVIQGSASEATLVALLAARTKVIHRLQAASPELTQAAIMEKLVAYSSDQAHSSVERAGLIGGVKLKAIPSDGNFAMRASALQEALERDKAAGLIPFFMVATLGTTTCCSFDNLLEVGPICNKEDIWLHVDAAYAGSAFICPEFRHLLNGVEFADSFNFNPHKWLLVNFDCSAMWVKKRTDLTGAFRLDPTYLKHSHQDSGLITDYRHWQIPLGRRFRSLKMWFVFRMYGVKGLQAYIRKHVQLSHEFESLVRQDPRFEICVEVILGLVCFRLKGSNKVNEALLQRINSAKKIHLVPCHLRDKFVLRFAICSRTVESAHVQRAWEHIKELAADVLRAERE
# T3: serine hydroxymethyltransferase (rabbit cytoplasmic), holo form (rabbit, UniProt P07511 1-484, PLP cofactor (holo form), residue not stated)
# T3 construct: rabbit cytoplasmic serine hydroxymethyltransferase, recombinant, holo form; Positive control of the SPR experiment; also called holoSHMT; SHMT
# T3 sequence (looked up): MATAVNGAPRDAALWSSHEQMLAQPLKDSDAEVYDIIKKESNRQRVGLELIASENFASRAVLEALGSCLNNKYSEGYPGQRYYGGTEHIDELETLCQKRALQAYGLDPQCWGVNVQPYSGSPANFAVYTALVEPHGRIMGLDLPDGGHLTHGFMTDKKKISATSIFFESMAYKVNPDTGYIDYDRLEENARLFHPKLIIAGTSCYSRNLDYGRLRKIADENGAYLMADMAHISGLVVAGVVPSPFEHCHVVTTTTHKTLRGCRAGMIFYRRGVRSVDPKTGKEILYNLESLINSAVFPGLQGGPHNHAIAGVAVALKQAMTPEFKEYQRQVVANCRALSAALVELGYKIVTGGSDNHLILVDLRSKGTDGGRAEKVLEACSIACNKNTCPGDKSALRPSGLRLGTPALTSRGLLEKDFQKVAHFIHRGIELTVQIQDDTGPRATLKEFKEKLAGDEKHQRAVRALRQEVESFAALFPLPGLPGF
# How the values were obtained:
# AAT [1] = target: AAT (UniProt P17174); test: FP/SPR; conditions: cited from earlier work
# Chain of AAT (P17174 2-413): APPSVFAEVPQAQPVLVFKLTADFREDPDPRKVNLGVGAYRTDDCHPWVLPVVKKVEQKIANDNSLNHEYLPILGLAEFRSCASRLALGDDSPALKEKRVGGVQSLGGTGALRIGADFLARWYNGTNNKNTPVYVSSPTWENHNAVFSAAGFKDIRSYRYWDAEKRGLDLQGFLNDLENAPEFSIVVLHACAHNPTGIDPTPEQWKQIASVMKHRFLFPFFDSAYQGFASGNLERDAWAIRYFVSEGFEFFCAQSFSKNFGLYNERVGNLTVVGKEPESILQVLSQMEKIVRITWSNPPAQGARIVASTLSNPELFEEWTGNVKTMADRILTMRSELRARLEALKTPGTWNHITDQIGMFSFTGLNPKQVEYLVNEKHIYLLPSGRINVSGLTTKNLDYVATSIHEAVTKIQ
# GAD = GAD (UniProt Q99259); test: FP/SPR; conditions: cited from earlier work
# Chain of GAD (Q99259 whole entry): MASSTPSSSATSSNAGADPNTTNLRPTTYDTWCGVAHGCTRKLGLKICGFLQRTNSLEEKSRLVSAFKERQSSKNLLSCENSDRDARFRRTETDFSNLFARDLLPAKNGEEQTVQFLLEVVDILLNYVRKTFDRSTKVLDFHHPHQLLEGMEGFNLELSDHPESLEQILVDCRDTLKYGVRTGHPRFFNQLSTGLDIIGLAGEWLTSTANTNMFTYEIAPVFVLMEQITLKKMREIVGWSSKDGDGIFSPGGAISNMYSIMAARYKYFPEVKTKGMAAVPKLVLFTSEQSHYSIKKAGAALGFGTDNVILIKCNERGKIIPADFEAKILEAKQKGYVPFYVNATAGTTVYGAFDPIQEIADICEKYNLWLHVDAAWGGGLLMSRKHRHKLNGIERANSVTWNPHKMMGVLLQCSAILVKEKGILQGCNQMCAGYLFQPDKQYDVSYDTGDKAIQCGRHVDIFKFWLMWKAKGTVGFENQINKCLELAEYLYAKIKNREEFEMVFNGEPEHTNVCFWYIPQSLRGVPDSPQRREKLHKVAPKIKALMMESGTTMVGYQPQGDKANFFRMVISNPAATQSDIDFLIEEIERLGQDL
# AAT [2] = target: AAT (UniProt P17174); test: fluorescence spectroscopy; conditions: cited from earlier work
# [3] = target: T1, human dopa decarboxylase, holo form; test: ITC; PNPO titrated into holoDDC or apoDDC in the cell; MICROCAL PEAQ-ITC, 25 °C, 19 injections of 2 µL; 50 mM potassium phosphate pH 7.4, 150 mM NaCl; at least triplicate; conditions: both partners purified
# [4] = target: T2, human dopa decarboxylase, apo form; test: as above; conditions: both partners purified
# [5] = target: T1, human dopa decarboxylase, holo form; test: SPR; Biacore T200, 25 °C; apoDDC, holoDDC and holoSHMT immobilised on a CM5 chip by amine coupling; analytes PNPO and albumin 100 to 1.5625 µM in PBS-P (10 mM phosphate pH 7.4, 140 mM NaCl, 3 mM KCl, 0.05% P20), 50 µL/min; conditions: both partners purified
# [6] = target: T3, serine hydroxymethyltransferase (rabbit …); test: as above; conditions: both partners purified
# Chain of PLK (O00764 whole entry): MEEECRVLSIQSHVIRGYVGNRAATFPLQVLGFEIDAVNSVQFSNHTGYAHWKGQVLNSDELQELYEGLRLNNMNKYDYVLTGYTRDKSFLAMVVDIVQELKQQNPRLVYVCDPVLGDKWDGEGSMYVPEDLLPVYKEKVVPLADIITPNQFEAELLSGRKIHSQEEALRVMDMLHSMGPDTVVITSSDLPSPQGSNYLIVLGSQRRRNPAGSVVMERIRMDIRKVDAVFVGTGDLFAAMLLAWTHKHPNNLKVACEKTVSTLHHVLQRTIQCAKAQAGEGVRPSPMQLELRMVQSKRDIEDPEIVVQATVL
Kd [3],dH [3],stoichiometry N [3],Kd [4],dH [4],stoichiometry N [4],Kd [5],Kd [6],Molecule,Kd (AAT [1]),Kd (GAD),Kd (AAT [2])
–,–,–,–,–,–,–,–,PLK (from UniProt O00764),4900 nM,2700 nM,3000 nM
2590 ± 110 nM,-2.33 ± 0.1 kcal/mol,0.94 ± 0.04,920 ± 70 nM,-3.03 ± 0.1 kcal/mol,0.52 ± 0.01,3700 nM,15400 nM,"human pyridoxine 5′-phosphate oxidase (enzyme, UniProt Q9NVS9 1-261, looked up, human pyridoxine 5′-phosphate oxidase (PNPO), recombinant; FMN-dependent enzyme; FMN was present during lysis and the first dialysis; also called PNPO; hPNPO; source: E. coli, purified (Histrap Ni2+ column, dialysis)) MTCWLRGVTATFGRPAEWPGYLSHLCGRSAAMDLGPMRKSYRGDREAFEETHLTSLDPVKQFAAWFEEAVQCPDIGEANAMCLATCTRDGKPSARMLLLKGFGKDGFRFFTNFESRKGKELDSNPFASLVFYWEPLNRQVRVEGPVKKLPEEEAECYFHSRPKSSQIGAVVSHQSSVIPDREYLRKKNEELEQLYQDQEVPKPKSWGGYVLYPQVMEFWQGQTNRLHDRIVFRRGLPTGDSPLGPMTHRGEEDWLYERLAP",–,–,–
